Primed or numbered codes have the meaning given here. 5,6FAM″ = fluorescein-5(6)-carbonyl on the lysine (K(5,6FAM))
Target: purified myelin basic protein (MBP)
Experiment: peptide binding to MBP-crosslinked beads against control beads without MBP

fold increase in binding to MBP crosslinked beads over control beads (no MBP): 10 fold
Binder: Ac-SHSTYTDWLNFWAWPGK(5,6FAM″)-NH2 [acetyl-…(5,6FAM)-amide]

From patent publication US20120148499A1
